In the supplement of paper PMC7125110:
± gives the standard error. Variants at the floor of the assay were thinned out.

B1: glmS ribozyme (parent)
chain: AUAAAAGCGCCAGAACUACAGAAAUGUAGUUGACGAGGAGGAGGUUUAUCGAAUUUUCGGCGGAUGCCUCCAAA

Columns and labels:
Details in all cases: with glucosamine-6-phosphate
glucosamine-6-phosphate [1] = variants of: B1; assay: self-cleavage kobs at 640 uM GlcN6P; higher = faster cleavage; RNA array
Summary of the method: (§1)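 Barcoded ribozyme variants on sequenced MiSeq chips were transcribed in situ by E. coli RNA polymerase and followed at 37 °C through a hybridised Cy3 probe. Glucosamine-6-phosphate at 40 μM to 10 mM in HEPES/KCl/Mg(OAc)2 buffer was flowed in, and tiles were imaged over ~14 h. Signals were normalised to baseline and to non-cleaving reference variants, and per-tile medians were fit to one- or two-exponential decays to give kobs. Weighted Michaelis–Menten fits across concentrations gave kcat and KM.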

glucosamine-6-phosphate [2] = variants of: B1; assay: self-cleavage kobs at 2500 uM GlcN6P; higher = faster cleavage; RNA array
Summary of the method: as §1

glucosamine-6-phosphate [3] = variants of: B1; assay: self-cleavage kobs at 10000 uM GlcN6P; higher = faster cleavage; RNA array
Summary of the method: as §1

Variant | self-cleavage kobs at 640 uM GlcN6P (glucosamine-6-phosphate [1]) [s⁻¹] | self-cleavage kobs at 2500 uM GlcN6P (glucosamine-6-phosphate [2]) [s⁻¹] | self-cleavage kobs at 10000 uM GlcN6P (glucosamine-6-phosphate [3]) [s⁻¹]
AUAAAAGCGUCAGAACUACAGAAAUGUAGUUGACGAGGAGGAGGUUUAUUGACUUUUCGGCGGAUGCCUCCAAA [C10U C50U A53C] | < 1e-05 | – | –
AUAAAAGCGACAGAACUACAGAAAUGUAGUUGACGAGGAGGAGGUUUAUCGAAUUUUCGGGGGGUGCGUCCAAA [C10A C61G A64G C68G] | 9.09e-05 ± 4.3e-05 | – | –
AUAAAAGCGGCAUAACUACAGAAAUGUAGUUGACGAGGAGUAGGUUUAGCGAAUUUUCGGCGGAUGCCUCCAAA [C10G G13U G41U U49G] | < 1e-05 | – | –
AUAAAAGCCCCAGAACUACAGAAAUGUAGUUGACGAGGAGGAGGUUUAUCGAAUUUUCGGCGGACGCUUCCAAA [G9C U65C C68U] | < 1e-05 | – | –
AUAAAAGCUCCAGAACUACAGAAAUGUAGUUGACGAGGAAGAGGUUUAUCGAAUUUUCGGGGGAUGCCUCCAAA [G9U G40A C61G] | < 1e-05 | – | –
AUAAAAGCGGAAGAACUACAGAAAUGUAGUUGACGAGGAGGAGGUUUAUCGAAUUUUGGGCGUAUGCAUCCAAA [C10G C11A C58G G63U C68A] | 0.000138 ± 3.5e-05 | 0.000117 ± 3.3e-05 | –
AUAAAAGCUGCAGAGCUACAGAAAUGUAGUUGACGAGUGGGAGGUUUAUCGUAUUUUCGGCGGAUGCCUCCAAA [G9U C10G A15G G38U A39G A52U] | < 1e-05 | < 1e-05 | < 1e-05
AUAAAAGCGUCAGAACUACAGAAAUGUAGUUGACUAGGAGGAGGUUUAUCGAAUUUUCGGCGGAUGCCUCCAAA [C10U G35U] | < 1e-05 | < 1e-05 | < 1e-05
AUAAAAGCGUCAGAAUUACAGAAAUGUAGUUGACGAGGAGGAGGUUUAUCGAAUUUUCGGCGUAUGCCUCCAAA [C10U C16U G63U] | < 1e-05 | – | < 1e-05
AUAAAAGCUCCAGAACUACAGAAAUGUAGUAGACGAGGAGGAGGUUUAUCGAAUUUUCGGCGGAUGCCUCCAAA [G9U U31A] | < 1e-05 | < 1e-05 | < 1e-05
AUAAAAGCUCCAGACCUACAGAAAUGUAGUUGACGAGGAGGAGGUUUAUCGAAUUUUCGGCGGAUGUCUCCAAA [G9U A15C C67U] | < 1e-05 | – | –
AUAAAAGCUCCAGACCUACAGAAAUGUAGUUGACGAGGAGGAGGUUUAUCGAAUUUUCGGCGGAUGCCUCCAAA [G9U A15C] | < 1e-05 | – | < 1e-05
AUAAAAGCGUGAGGAAUACAGAAAUGUAGUUGACGAGGAGAAGGUUUAUCUAAUUUUCGGCGGAUGCCUCCAAA [C10U C11G A14G C16A G41A G51U] | < 1e-05 | – | –
AUAAAAGCCCCAGAACUACAGAAAUGUAGUUGACGAGGAGGAGGAUUAUCGAAUUUUCGGCGGAUGCAUCCAAA [G9C U45A C68A] | < 1e-05 | < 1e-05 | –
AUAAAAGCGACAGAAAUACAGAAAUGUAGUUGACGAGGAGGAGGUUUAUCUAAUUUUCGGCGGCUGCCUCCAAA [C10A C16A G51U A64C] | < 1e-05 | – | –
AUAAAAGCUCCAGAACUACAGAAAUGUAGUUGACGAGGAGGAGGUGUAUCGAAUUUUGGGCGGAUGCCUCCAAA [G9U U46G C58G] | < 1e-05 | < 1e-05 | –
AUAAAAGCUCCAGAACUACAGAAAUGUAGUUGACGAGGAGGAGGUUUAUCGAAUUGUCGGCGGACGGCUCCAAA [G9U U56G U65C C67G] | < 1e-05 | – | –
AUAAAAGCCCCAGAACUACAGAAAUGUAGUUGACGAGGAGGAGGUUUAUCGAAUUUUCGGCGGAAGCGUCCAAA [G9C U65A C68G] | 0.000522 ± 0.00017 | – | 6.3e-05 ± 2.2e-05
AUAAAAGCGGCAGGACUACAGAAAUGUAGUAGAUGAGGAGGAGGUUUAUCCAUCUUUCGGCGGAUUCCUCCAAA [C10G A14G U31A C34U G51C A53U U54C G66U] | < 1e-05 | – | –
AUAAAAGCGGCAGAGCUACAGAAAUGUAGUUGACGAGGUGGAGGUUUAUCGAAUUUUCGCCGGAUGCAUCCAAA [C10G A15G A39U G60C C68A] | < 1e-05 | < 1e-05 | –
AUAAAAGCUCCAGAACUACAGAAAUGUAGUUGACGAGGAGGUGGUUUCUGGAAUUUUCGGCGCAUGUCUCCAAA [G9U A42U A48C C50G G63C C67U] | < 1e-05 | – | –
AUAAAAGCGUCGGAACUACAGAAAUGUAGUUAACGAGGAGGUGGUUUAUCGAAUUUUCGGCGGAUGCCUCCAAA [C10U A12G G32A A42U] | < 1e-05 | < 1e-05 | –
AUAAAAGCCCCAGAACUACAGAAAUGUAGUCGACGAGGAGGAGGUUUAUCGAAUUUUCGGCGGAUGUCUCCAAA [G9C U31C C67U] | < 1e-05 | < 1e-05 | –
AUAAAAGCGUCAGAACUACAGAAAUGUAGUUGACGAGGAGGAGGUUUAUCGAAUUUUCGGAGGAUGGCUCGAAA [C10U C61A C67G C71G] | 0.000112 ± 3.5e-05 | 7.34e-05 ± 2.4e-05 | –

Variant | self-cleavage kobs at 640 uM GlcN6P (glucosamine-6-phosphate [1]) [s⁻¹] | self-cleavage kobs at 2500 uM GlcN6P (glucosamine-6-phosphate [2]) [s⁻¹] | self-cleavage kobs at 10000 uM GlcN6P (glucosamine-6-phosphate [3]) [s⁻¹]
AUAAAAGCGGCAGGACUACAGAAAUGUAGUUGACGCGGAGGAGGUUUAUCGAAUUUUCGGCUGAUGCCUCCAAA [C10G A14G A36C G62U] | < 1e-05 | – | –
AUAAAAGCCCCAGAACUACAGAAAUGUAGUUGACGAGGAGGAGGUUUAUCGAAUUUUCGGCGUAUACAUCAAAA [G9C G63U G66A C68A C71A] | < 1e-05 | < 1e-05 | –
AUAAAAGCGGCUGAACUACAGAAAUGUAGUUGACGAGGAGGAGGUAUAUCGAAUUUUCGGCGGAUGCCUCCAAA [C10G A12U U46A] | < 1e-05 | – | –
AUAAAAGCUUCAGAACUACAGAAAUGUAGUUGAGGAGGAGGAGGUUUAUCGAUUUUUCGGCGCAAGCCUCCAAA [G9U C10U C34G A53U G63C U65A] | < 1e-05 | – | –
AUAAAAGCUCCAGAACUACAGAAAUGUAGUUGACGAGGAGGGGGUUUAUCGAAUUUUCGGCGGAUGCCUCCAAA [G9U A42G] | < 1e-05 | – | –
AUAAAAGCGUCAGAACUACAGAAAUGUAAUUGACGAGGAGGAGGUUUAUCGAAUUUUCGGAAGAUGCCUUCAAA [C10U G29A C61A G62A C70U] | 7.67e-05 ± 3.8e-05 | – | –
AUAAAAGCUCUAGAACUACAGAAAUGUAGGUGACGAGGAGGAGGUUUAUCGAAUUUUCGGCGGAUGCCUCCAAA [G9U C11U U30G] | < 1e-05 | – | –
AUAAAAGCGACCGAACUACAGAAAUGUAGUUGACGAGGAGGAGGUUUAUCGAAUUUUCGGCGGAUUCCUCCAAA [C10A A12C G66U] | < 1e-05 | < 1e-05 | –
AUAAAAGCGUCAGAACUACAGAAAUGUAGUUGACGAGGAGGAGGUUUAUCGCAUUUUCGGCGGAUACCUCCAAA [C10U A52C G66A] | < 1e-05 | < 1e-05 | –
AUAAAAGCGUCAGUAGUACAGAAAUGUAGUUGACGAGGAGGAGGGUUAUCGAAUUUUCGGCGGAUGCCUCCAAA [C10U A14U C16G U45G] | < 1e-05 | – | –
AUAAAAGCGUCAGAACUACAGAAAUGUAGUUGACGAGGAGGAGGUUCAUCGAAUGUUCGGCGGAUGCCUCCAAA [C10U U47C U55G] | < 1e-05 | – | –
AUAAAAGCUCCAGAACUACAGAAAUGUAGUUGACGAGGAGGAGGUUUAUCGAAUUUUCGACGGAUUCCUCCAAA [G9U G60A G66U] | < 1e-05 | – | –
AUAAAAGCGGGAGAACUACAGAAAUGUAGUUGUCGAGGAGGAGGUUUAUCGAAUUUUCGGCGGAUGCGUCCAAA [C10G C11G A33U C68G] | 4.85e-05 ± 2.2e-05 | 9.09e-05 ± 3.3e-05 | –
AUAAAAGCUCGAGAACUACAGAAAUGUAGUUGACGAGGAGUAGGUUUAUCGAAUUUUCGGCGGAUGCCUCCAAA [G9U C11G G41U] | < 1e-05 | – | –
AUAAAAGCUCCGGCACUACAGAAAUGUAGUUGACGAGGAGGAGGUUUAUCGACUUUUCGGCGGAUGCCUCCAAA [G9U A12G A14C A53C] | < 1e-05 | < 1e-05 | –
AUAAAAGCUCCAGAACUACAGAAAUGUAGUUGACGAGGAGGAGGUUUAUCGAAUCUUCGGCUGAUGCCUCCAAA [G9U U55C G62U] | < 1e-05 | – | –
AUAAAAGCGGCAGAACUACAGAAAUGUAGUUGACGCGGAGGAGGUUUAUCGAAUUUUCGACGGAUGCCUCCAAA [C10G A36C G60A] | < 1e-05 | – | –
AUAAAAGCGCAUGAACUACAGAAAUGUAGUUGACGCGGAGGAGGUUUCUCGAAUUUUCGUCAGAUGCCUCCAAA [C11A A12U A36C A48C G60U G62A] | < 1e-05 | < 1e-05 | –
AUAAAAGCGGCAGAACUACAGAAAUGUAGUUGACGAGGAGGAGCUUUAUCGAAUUUUCGGCGGAUGCCUCCAAA [C10G G44C] | < 1e-05 | < 1e-05 | –
AUAAAAGCUCCAGAAAUACAGAAAUGUAGUUGACGAGGAGGAGGUUUAUCGAAUUUUCUUCGGAUGCCUCCAAA [G9U C16A G59U G60U] | < 1e-05 | < 1e-05 | –
AUAAAAGCGUCAGAGCUACAGAAAUGUAGUUGACGAACAGGAGGUUUAUCGAUUUUUCGGCGGAUGCCUCCAAA [C10U A15G G37A G38C A53U] | < 1e-05 | – | –
AUAAAAGCGUCAGAACUACAGAAAUGUAGUUGACGAGGAGGAGGUUUAUCGUAUUUUCGGCGGAUGAAGCCAAA [C10U A52U C67A C68A U69G] | 8.14e-05 ± 3.2e-05 | – | –
AUAAAAGCGUCAGAACUACAGAAAUGUAGUUGACGAGCAAGAGGUUUAUCGAAUGUUCGGCGGAUGCCUCCAAA [C10U G38C G40A U55G] | < 1e-05 | < 1e-05 | < 1e-05
AUAAAAGCGACAGAAUUACAGAAAUGUAGUUGACGAGGAGGAGGUUUAUCGAAUUUUCGGCGGAUGGCUCCAAA [C10A C16U C67G] | 0.000345 ± 0.00015 | – | –
